From patent publication US20260209365A1, “ANTI-COMMON GAMMA CHAIN PROTEINS AND COMPOSITIONS OF MATTER” (SINOMAB BIOSCIENCE LIMITED, priority 2023, published 2026)
Changes are numbered by the printed parent chain.

T1: human γc proteins (Homo sapiens, UniProt P31785)
T1 construct: extracellular domain of human γc protein (amino acids: 1-262); host or cells: Expi-CHO (e.g.)
T1 sequence (P31785 23-262): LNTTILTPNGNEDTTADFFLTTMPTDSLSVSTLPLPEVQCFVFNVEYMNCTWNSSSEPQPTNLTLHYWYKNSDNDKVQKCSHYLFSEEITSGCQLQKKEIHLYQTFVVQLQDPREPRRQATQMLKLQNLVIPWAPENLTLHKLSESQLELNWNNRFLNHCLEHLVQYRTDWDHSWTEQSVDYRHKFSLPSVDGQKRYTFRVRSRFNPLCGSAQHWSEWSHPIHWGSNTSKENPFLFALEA

T2: mouse γc (Mus musculus, UniProt P34902)
T2 construct: 6×His (C)
T2 sequence (P34902 with tags, fused parts or gaps): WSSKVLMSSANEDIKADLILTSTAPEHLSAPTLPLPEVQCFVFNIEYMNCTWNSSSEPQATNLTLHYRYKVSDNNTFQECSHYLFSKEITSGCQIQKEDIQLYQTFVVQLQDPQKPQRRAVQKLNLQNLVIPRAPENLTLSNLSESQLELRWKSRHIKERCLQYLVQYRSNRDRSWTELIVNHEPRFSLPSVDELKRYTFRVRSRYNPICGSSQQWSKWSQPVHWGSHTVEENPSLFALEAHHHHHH

T3: γc proteins from human (Homo sapiens, UniProt P31785)
T3 construct: extracellular domain of human γc protein (amino acids: 1-262); host or cells: Expi-CHO (e.g.)
T3 sequence (P31785 23-262): T1 sequence (P31785 23-262)

T4: human γc protein (Homo sapiens, UniProt P31785)
T4 construct: endogenous in cells; host or cells: Ramos B cells
T4 sequence (P31785 23-369): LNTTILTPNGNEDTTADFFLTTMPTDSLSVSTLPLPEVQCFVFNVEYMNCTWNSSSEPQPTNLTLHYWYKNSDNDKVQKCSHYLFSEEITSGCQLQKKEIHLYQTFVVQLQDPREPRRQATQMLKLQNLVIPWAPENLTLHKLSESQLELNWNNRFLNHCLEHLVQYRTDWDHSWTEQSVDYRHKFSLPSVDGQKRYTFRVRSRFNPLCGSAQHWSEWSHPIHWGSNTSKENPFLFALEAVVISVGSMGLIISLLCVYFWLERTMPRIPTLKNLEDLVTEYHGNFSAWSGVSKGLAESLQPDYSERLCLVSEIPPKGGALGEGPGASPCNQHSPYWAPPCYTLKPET

B1: hSM-05A: full-length humanized anti-γc antibody derived from SM-05A by framework patching (antibody, V domains shown)
VH: QVQLVQSGAEVLKPGASVKVSCKASGYTFTEYTMHWVKQARGQRLEWIGGIDPYNGGATYNQRFKGKATLTTDTSTSTAYMELRNLRSDDTAVYYCARRRLYYGNALDYWGQGTLVTVSS
VL: DIVMTQSPLSLPVTPGEQASISCRSSQSLVHSNGNTYLHWYLQKPGQSPQLLIYKVSSRFSGVPDRFSGSGSGTDFTLKISRVEAEDVGVYFCSQTTHVPFTFGSGTKLEIKR
B2: hSM-05E: full-length humanized anti-γc antibody derived from SM-05E by framework patching (antibody, V domains shown)
VH: B1 VH with Y54N, N55T, A58V, R63K, L101R, N105Y
VL: B1 VL with L29I, H39E, S58N, T96S, T102M

Key:
[1] = target: T1, human γc proteins; assay: BLI binding kinetics to human γc protein
Procedure: (§1) Full-length humanized antibodies were evaluated by BLI to access their binding kinetics. The binding activities of full-length anti-γc antibody were investigated using γc proteins (extracellular domain) from human and common marmoset (either purchased or in-house generated). Briefly, anti-γc antibody (20 μg/mL) was immobilized on biosensors via interactions with anti-human IgG; serially diluted γc proteins (at a concentration of 158.7 nM, 79.4 Nm, 39.7n M and 0 nM respectively) were subsequently added following standard operation protocols of the Octet ReD96 system to plot out the association and dissociation curve. Irrelevant antibody (SM03, anti-human CD22 chimeric IgG1 antibody, SinoMab BioScience Limited) was used as the control reference. The KD is within the picomolar-single digit nanomolar range.

[2] = system: common marmoset γc; assay: BLI binding kinetics to common marmoset γc protein; design: species or system common marmoset (Callithrix jacchus)
common marmoset γc, sequence (as listed by the source): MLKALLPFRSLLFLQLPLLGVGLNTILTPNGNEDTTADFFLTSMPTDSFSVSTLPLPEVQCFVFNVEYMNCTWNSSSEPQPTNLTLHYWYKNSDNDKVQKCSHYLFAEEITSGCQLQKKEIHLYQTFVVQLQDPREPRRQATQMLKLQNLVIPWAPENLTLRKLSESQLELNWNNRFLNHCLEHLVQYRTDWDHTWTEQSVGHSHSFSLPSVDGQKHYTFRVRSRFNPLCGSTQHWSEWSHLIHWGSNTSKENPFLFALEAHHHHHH
Procedure: as §1

[3] = system: cynomolgus γc; assay: BLI binding kinetics to cynomolgus γc protein; design: species or system cynomolgus (Macaca fascicularis)
cynomolgus γc, sequence (as listed by the source): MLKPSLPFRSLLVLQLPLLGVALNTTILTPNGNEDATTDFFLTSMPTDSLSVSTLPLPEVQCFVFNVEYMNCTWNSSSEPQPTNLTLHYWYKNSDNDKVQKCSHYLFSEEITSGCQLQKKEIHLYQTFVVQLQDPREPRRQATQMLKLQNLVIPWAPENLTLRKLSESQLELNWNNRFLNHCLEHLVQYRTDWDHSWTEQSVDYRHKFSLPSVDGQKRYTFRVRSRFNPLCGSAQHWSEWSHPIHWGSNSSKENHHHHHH

[4] = target: T2, mouse γc; assay: BLI binding kinetics to mouse γc protein
[5] = system: IL-2 induced p-STAT3; assay: Suppression of p-STAT in PBMC, IL-2; assay type: cell-based, human; conditions: antibody 10 μg/ml, compared to isotype control
Procedure: (§2) Given numbers refer to the percentage of inhibition compared to isotype control stimulated with respective γc cytokine. Antibody concentration is 10 μg/ml.

[6] = system: IL-21 induced p-STAT3; assay: Suppression of p-STAT in PBMC, IL-21; assay type: cell-based, human; conditions: antibody 10 μg/ml, compared to isotype control
Procedure: as §2

[7] = Structural stability by SEC-HPLC; assay type: physicochemical; conditions: for purity by SEC-HPLC after incubation: 12 days after PBS exchange at RT and 37° C.
Procedure: Next, structural stabilities of hSM-05A and hSM-05E were studied by incubation at either room temperature or 37° C. for around 2 weeks. SEC-HPLC was utilized to measure aggregates and degradation of antibodies. […] No degradation of the antibodies was observed aft er 2 weeks.

[8] = target: T3, γc proteins from human; assay: ELISA binding of full-length antibodies to human γc; conditions: humanized antibodies with back-mutation
Procedure: (§3) Selected clones of full-length antibodies were evaluated by ELISA to access the binding specificity. The binding activities of full-length anti-γc antibody were investigated using γc proteins (extracellular domain) from human (SEQ ID NO: 205-206), cynomolgus (Sequence ID: XP_005593949.1, SEQ ID NO: 207-208) and chimpanzee (Sequence ID: XP_008971810.1, SEQ ID NO: 209-210) either purchased from Sino Biological or in-house generated.
(§4) Humanized antibodies with back-mutation (hSM-05A and hSM-05E) were tested in the following assays. Binding affinities were investigated in the ELISA assays.

[9] = system: γc proteins from chimpanzee; assay: ELISA binding of full-length antibodies to chimpanzee γc; design: species or system chimpanzee (Pan troglodytes); conditions: humanized antibodies with back-mutation
γc proteins from chimpanzee, sequence (as listed by the source): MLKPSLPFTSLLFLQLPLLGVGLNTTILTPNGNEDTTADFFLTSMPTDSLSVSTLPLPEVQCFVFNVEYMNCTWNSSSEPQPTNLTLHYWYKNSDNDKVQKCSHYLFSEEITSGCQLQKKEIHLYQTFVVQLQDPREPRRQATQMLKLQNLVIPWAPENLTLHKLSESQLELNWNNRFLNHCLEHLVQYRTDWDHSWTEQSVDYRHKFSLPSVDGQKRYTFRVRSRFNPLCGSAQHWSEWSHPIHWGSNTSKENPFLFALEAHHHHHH
Procedure: as §3, §4

[10] = target: T4, human γc protein; assay: Competition assay on Ramos B cells, flow cytometry; assay type: binding; conditions: unconjugated hSM-05A then FITC-conjugated hSM-05E, 33 nM
Procedure: Purified anti-γc antibodies were conjugated to FITC fluorescent dye and used for the competition assay. In brief, human γc expressing Ramos B cells were first labelled with unconjugated hSM-05A for an hour before further incubation with FITC-conjugated hSM-05E.

[11] = system: T cells; assay: Mixed lymphocyte reaction (MLR) in human PBMC; assay type: cell-based; conditions: CFSE, flow cytometry
Procedure: To provide hints at effects of humanized antibodies to target GvHD, MLR assay was developed in our PBMC system (FIG. 29A). In brief, total T cells were isolated from PBMC of donor 1 while T cells were depleted from PBMC of donor 2. T cells from donor 1 were activated with a cocktail of anti-CD3 and anti-CD28 antibodies in the presence of IL-2. Simultaneously, T cells were incubated with humanized antibodies or ritlecitinib together with inducing agents. After 3 days, T cells were labelled with CFSE before co-culture with T-cell depleted culture from donor 2 for 6 days. Proliferating T cells were identified as CFSE low or CSFE negative population in flow cytometry.

[12] = room temperature or 37° C. for around 2 weeks

| Molecule | Ka ([1]; Experiment 1) [M⁻¹ s⁻¹] | Kdis ([1]; Experiment 1) [s⁻¹] | Ka ([1]; Experiment 2) [M⁻¹ s⁻¹] | Kdis ([1]; Experiment 2) [s⁻¹] | Ka [2] [M⁻¹ s⁻¹] | Kdis [2] [s⁻¹] | Ka [3] [M⁻¹ s⁻¹] | Kdis [3] [s⁻¹] | Ka [4] [M⁻¹ s⁻¹] | Kdis [4] [s⁻¹] | IL-2 induced p-STAT3, percentage of inhibition [5] [%] | IL-21 induced p-STAT3, percentage of inhibition [6] [%] | purity by SEC-HPLC after incubation [7] | aggregation state after incubation [7, 12] | ELISA binding to human γc [8] | ELISA binding to chimpanzee γc [9] | epitope competition between hSM-05A and hSM-05E [10] | inhibition of MLR induced expansion of cytotoxic T cells [11] | suppression of MLR induced expansion of T helper cells [11] | fraction forming aggregates [7, 12] |
| --- | --- | --- | --- | --- | --- | --- | --- | --- | --- | --- | --- | --- | --- | --- | --- | --- | --- | --- | --- | --- |
| B1 | 119000 | 0.000319 | 175000 | 0.00144 | 300000 | 0.00121 | 22500 | 0.00683 | 6580 | 0.000712 | 89.94 | 82.80 | around 99.9% | remained as single molecule | retained the binding affinity and specificity | retained the binding affinity and specificity | could compete on a similar epitope on the human γc protein | could significantly inhibit | the suppression was milder to T helper cells | – |
| B2 | 119000 | 0.000573 | 327000 | 0.000944 | 333000 | 0.00175 | 22500 | 0.00683 | 340000 | 0.0252 | 58.45 | 100 | around 80% | – | retained the binding affinity and specificity | retained the binding affinity and specificity | could compete on a similar epitope on the human γc protein | could significantly inhibit | the suppression was milder to T helper cells | around 20% |
